The text below walks through data of patent US20080213909A1, “PHARMACEUTICAL PACKAGING ASSAY” (priority 2006, published 2008).

For series [1] the following is noted: supplier material data; cited from earlier work.
A short description of series [2]: Direct vial assay: adsorption of Cy3-labeled fibrinogen to coated Type 1 glass surfaces (fluorescence). The note with it: 5 μg/mL in 50 mM phosphate buffer pH 7, 4° C., 72 hours; four surfaces (FIG. 3). The format is physicochemical. From the text:
(§1) One aspect of the invention is an assay method for the determination of drug adsorption to commercially available pharmaceutical packaging surfaces and test surfaces under development. Pharmaceutical packaging surface materials include glass, polymers (polyethylene, polypropylene, polycarbonate, polyterphalate, cylic olefin copolymer, etc.), elastomers (rubbers, etc.), metals and alloys for vials, syringes, ampoules, cartridges, stoppers, etc. and components thereof. The assay consists of the following steps: • 1) Drug of interest is labeled with a fluorescent chemical group and degree of incorporation of dye is quantified. • 2) Calibration curves of various concentrations of the fluorescently labeled biomolecules are generated. • 3) Fluorescently labeled drug solution is exposed to the pharmaceutical packaging surface of interest for a length of time ranging from minutes to years. • 4) Fluorescently labeled drug solution is removed from pharmaceutical packaging surface of interest. This solution can be analyzed to determine the amount of drugs remaining in the solution. […] Aliquots of the solution, or aliquots of the solution first concentrated, are then applied to a sample holding surface for determination of biomolecular adsorption via fluorescence measurements. […]

A short description of series [3]: Direct vial assay: adsorption of labeled insulin to various coated surfaces (fluorescence). Type of series: physicochemical. The note with it: 10 μg/mL in 50 mM phosphate buffer pH 7, 4° C., 72 hours; nine surfaces (FIG. 6).
From the text: as §1

Regarding fibrinogen, the pI in series [1] was 5.4. In addition, in series [2], the “protein adsorption to sample surfaces” value is “quantifiable difference in protein adsorption between various sample surfaces”.

Take “insulin: Porcine insulin from Sigma (15523), test biomolecule”: the pI in series [1] was 7.0. For the same substance, in series [3], the “protein adsorption to sample surfaces, normalized to Type 1 vial” value is listed as “quantifiable difference in protein adsorption between various sample surfaces”.
